Data reported in patent US20200369771A1 (JOINT STOCK COMPANY BIOCAD, published 2020).
Where a chain is given by its changes, count along the chain named. Blank lines part the entries; values can stand above or below the binder they belong to.

What was measured:
[1] = target: rat PD-L1-Fc (rat, UniProt D4AE25 19-239); assay: ELISA, PD-L1-Fc coated at 0.5 µg/ml, antibody titrated 5 to 0.0007 µg/ml, OD 450 nm
Protocol: (§1) ELISA was used to measure the relative affinity of anti-PD-L1 antibodies from different organisms. For the binding assay, ELISA plate wells (medium binding from Greiner bio one) were coated with 50 μl of human, cynomolgus, murine, rat, canine, rabbity PD-L1-Fc, (0.5 μg/ml in 1× carbonate buffer), hermetically sealed and incubated overnight at 4° C. All the subsequent stages were conducted following standard ELISA protocol described above.

[2] = target: T1, cynomolgus PD-L1-Fc (cynomolgus, UniProt G7PSE7 19-238); assay: as above
T1 construct: not shown: Fc part
Protocol: as §1

[3] = target: T2, murine PD-L1-Fc (murine, UniProt Q9EP73 19-239, limits assumed); assay: as above
T2 construct: not shown: Fc part
Protocol: as §1

[4] = target: T3, human PD-L1-Fc (human, UniProt Q9NZQ7 19-238, limits assumed); assay: as above
T3 construct: not shown: Fc part
Protocol: as §1

[5] = target: T4, canine PD-L1-Fc (canine, UniProt E2RKZ5 19-236); assay: as above
T4 sequence: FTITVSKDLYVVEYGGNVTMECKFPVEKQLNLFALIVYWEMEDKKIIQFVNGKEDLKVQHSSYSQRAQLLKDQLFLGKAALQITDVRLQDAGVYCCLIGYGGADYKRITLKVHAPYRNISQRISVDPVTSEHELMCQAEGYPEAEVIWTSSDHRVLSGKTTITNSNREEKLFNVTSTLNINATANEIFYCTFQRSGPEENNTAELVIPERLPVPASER
Protocol: as §1

[6] = target: T5, human PD-L1 (recombinant, in solution) (human, UniProt Q9NZQ7 19-238, limits assumed); assay: BLI OctetRed 96, BCD-135 on AR2G sensors, PD-L1 in solution at 10 to 1 ug/ml, 30 C, 1:1 model; human PD-L1
T5 construct: also called human PD-L1 antigen
Protocol: (§2) Constants of the antibody binding affinity to human and cynomolgus PD-L1 were measured with an OctetRed 96 instrument (from ForteBio). […] The assay was carried out at 30 ° C. using PBS containing 0.1% Tween-20 and 0.1% BSA as a reaction buffer. The binding of human and monkey PD-L1 solutions to a sensor-bound antibody was analysed in a work buffer with an antigen concentration of 10 μg/ml to 1 μg/ml.
(§3) The binding curves minus the reference signal were analyzed using Octet Data Analysis (ver 8.2) software according to the standard procedure using the 1:1 interaction model.

[7] = target: T6, IL17a (Homo sapiens (Human), UniProt Q16552 24-155); assay: ELISA, antigen coated at 1 µg/ml, BCD-135 titrated 5 to 0.0007 µg/ml, OD 450 nm
T6 construct: Off-target antigen in the specificity ELISA
Protocol: (§4) ELISA was used to measure the relative affinity of anti-PD-L1 antibodies and other antigens. For binding assay, ELISA plate wells (medium binding from Greiner bio one) were coated with 50 μl of PD-L1-Fc, fPCSK9-EPEA, Ang2-H6F, GM-CSF-FE, CD3-ED-Fc, IL17a, CD38-Fc, IL6R-Fc (1 μg/ml in lx carbonate buffer), hermetically sealed and incubated overnight at 4° C. All the subsequent stages were conducted following standard ELISA protocol. To block a non-specific binding, a buffer BB (200 μL of 0.5% skimmed milk in PBS) was added. The plates were incubated on a shaker for an hour at room temperature. […] The plates were again incubated, shaking for one hour at room temperature, followed by washing for three times each plate well with PBS-Twin buffer. Once washed, (50 μL/well) anti-human Fab HRP-conjugated secondary antibodies (from Pierce-ThermoScientific) were added at 1:5000 ratio in PBS-Tween. The plates were shaken on a rotary shaker (50 min, room temperature) and washed for three times with FSB-Twin buffer, as described above. The colourimetric signal was developed by adding TMB (50 μL/well) until saturation (average 3-5 min), then the development was quenched by adding stop solution (30 μL/well, 10% sulphuric acid). Colour signal was measured at a wavelength of 450 nm using a suitable Tecan-Sunrise plate reader (from Tecan).

[8] = target: T7, FcgRIa (Homo sapiens (Human), UniProt P12314 16-292, C-terminal biotin; the letters of any biotinylation or purification tag are not given); assay: Biolayer interferometry (Octet RED96), biotinylated receptor on streptavidin sensors, antibody in solution, phosphate buffer pH 7.4
T7 construct: Biotinylated receptor held on streptavidin sensors; also called Fcg receptor; Fcγ-receptor

[9] = target: T8, rabbit PD-L1-Fc (rabbit, UniProt G1SUI3 19-236); assay: ELISA, PD-L1-Fc coated at 0.5 ug/ml
T8 construct: also called rabbity PD-L1-Fc; not shown: Fc part
T8 sequence: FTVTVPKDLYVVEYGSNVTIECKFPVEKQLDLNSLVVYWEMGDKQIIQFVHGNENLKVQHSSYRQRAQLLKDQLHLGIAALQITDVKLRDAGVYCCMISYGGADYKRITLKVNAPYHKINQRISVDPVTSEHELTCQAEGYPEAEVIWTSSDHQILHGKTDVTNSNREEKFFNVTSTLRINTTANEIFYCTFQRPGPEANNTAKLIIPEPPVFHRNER
Protocol: as §1

[10] = target: T9, cynomolgus monkey PD-L1 (in solution) (cynomolgus monkey, UniProt G7PSE7 19-238); assay: BLI OctetRed 96, BCD-135 on AR2G sensors, PD-L1 in solution at 10 to 1 ug/ml, 30 C, 1:1 model; cynomolgus PD-L1
T9 construct: also called cynomolgus PD-L1 antigen
Protocol: as §2, §3

[11] = target: T3, human PD-L1-Fc; assay: ELISA, antigen coated at 1 µg/ml, BCD-135 titrated 5 to 0.0007 µg/ml, anti-human Fab HRP, OD 450 nm
Protocol: as §4

[12] = target: T5, human PD-L1 (recombinant, in solution); assay: BLI Octet Red 96, Fab from E. coli supernatant on anti-FABCH1 sensors, PD-L1 at 30 ug/mL, 1:1 model
Protocol: Anti-FABCH1-biosensors (SA) were rehydrated for 30 minutes in the reaction buffer containing 10 mM PBS, pH 7.2-7.4, 0.1% Tween-20, 0.1% BSA. The reaction buffer was added into study E. coli supernatant samples to a final concentration of 1×. Then, anti-FABCH1-biosensors were submerged in E. coli supernatants containing Fab fragments of candidate antibodies for 12 hours at 4 ° C. Sensors with surface immobilized Fab fragments were transferred into wells with reaction buffer wherein baseline was recorded (for 60 seconds). Next, sensors were transferred to wells with analyte solution (PD-L1, 30 μg/mL) to associate antigen-antibody complex (300 s). Then, sensors were returned to the wells containing the reaction buffer for the next dissociation step (600 s). After each experiment, used sensors were regenerated by 3-time placing them into the regeneration buffer (Gly-HCl, pH 1.7), thereafter they were used in the next experiment. Obtained curve analysis was carried out using Octet Data Analysis (ver 7.0) software according to the standard procedure using 1:1 interaction model.

T5 sequence (Q9NZQ7 other isoform, or with tags, fused parts or gaps limits assumed): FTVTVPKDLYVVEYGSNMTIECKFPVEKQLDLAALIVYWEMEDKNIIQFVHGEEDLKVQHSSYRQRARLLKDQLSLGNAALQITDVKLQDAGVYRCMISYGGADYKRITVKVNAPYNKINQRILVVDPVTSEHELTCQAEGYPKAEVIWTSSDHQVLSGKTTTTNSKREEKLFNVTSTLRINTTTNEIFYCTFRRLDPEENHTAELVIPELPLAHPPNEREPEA
T3 sequence (Q9NZQ7 19-238 limits assumed): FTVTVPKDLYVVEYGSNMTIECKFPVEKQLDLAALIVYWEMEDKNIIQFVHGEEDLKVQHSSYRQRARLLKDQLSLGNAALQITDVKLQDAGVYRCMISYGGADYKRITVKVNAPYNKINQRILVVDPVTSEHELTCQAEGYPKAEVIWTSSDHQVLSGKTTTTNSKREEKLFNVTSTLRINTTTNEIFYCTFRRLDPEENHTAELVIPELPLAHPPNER
T2 sequence (Q9EP73 19-239 limits assumed): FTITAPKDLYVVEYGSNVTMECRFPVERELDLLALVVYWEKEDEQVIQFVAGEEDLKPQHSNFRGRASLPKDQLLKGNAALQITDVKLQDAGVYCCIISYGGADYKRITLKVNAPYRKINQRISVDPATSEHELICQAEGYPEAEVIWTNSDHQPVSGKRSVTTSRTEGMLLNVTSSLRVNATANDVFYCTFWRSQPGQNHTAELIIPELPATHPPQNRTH
Chain of rat PD-L1-Fc (D4AE25 entry or part of it limits assumed): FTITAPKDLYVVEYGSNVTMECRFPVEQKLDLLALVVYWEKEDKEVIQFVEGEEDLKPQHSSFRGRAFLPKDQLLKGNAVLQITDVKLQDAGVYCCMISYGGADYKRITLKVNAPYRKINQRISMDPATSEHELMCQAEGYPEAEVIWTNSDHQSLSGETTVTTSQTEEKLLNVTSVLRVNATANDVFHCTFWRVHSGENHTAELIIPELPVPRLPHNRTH
T1 sequence (G7PSE7 entry or part of it): as the sequence (Q9NZQ7 19-238 limits assumed) above, with A33T, A34S, S62N, R68Q, Q82R, F173L, T185A, T192I, H215L counted along it
T9 sequence (G7PSE7 entry or part of it): as the sequence (Q9NZQ7 19-238 limits assumed) above, with A33T, A34S, S62N, R68Q, Q82R, F173L, T185A, T192I, H215L counted along it
T6 sequence (Q16552 24-155 limits assumed): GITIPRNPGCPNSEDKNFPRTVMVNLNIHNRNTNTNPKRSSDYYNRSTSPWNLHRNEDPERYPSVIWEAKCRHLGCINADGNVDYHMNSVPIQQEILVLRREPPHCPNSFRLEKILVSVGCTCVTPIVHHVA
T7 sequence (P12314 16-292 limits assumed): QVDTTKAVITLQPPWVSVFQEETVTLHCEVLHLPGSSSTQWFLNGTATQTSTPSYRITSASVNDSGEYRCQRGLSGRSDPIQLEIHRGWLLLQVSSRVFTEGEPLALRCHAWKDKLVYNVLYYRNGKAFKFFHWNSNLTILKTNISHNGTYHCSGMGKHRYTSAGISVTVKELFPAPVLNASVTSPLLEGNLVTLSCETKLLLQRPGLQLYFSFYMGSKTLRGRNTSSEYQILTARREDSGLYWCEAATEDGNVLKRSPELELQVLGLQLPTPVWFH

binding result [1]: no binding (tested: 5 µg/ml)
EC50 (read off the curve) [2]: ~5 ng/mL
binding result [3]: no binding (tested: 5 µg/ml)
EC50 (read off the curve) [4]: ~6 ng/mL
binding result [5]: no binding (tested: 5 µg/ml)
Kd [6]: < 0.001 nM
binding result [7]: no binding (tested: 5 µg/ml)
binding result [8]: no binding
binding result [9]: no binding
Kd [10]: 0.555 nM
EC50 (read off the curve) [11]: ~6 ng/mL
B1: BCD-135 antibody (antibody, human IgG1, lambda, L234A L235A)
heavy: not shown
light: QTVVTQEPSLSVSPGGTVTLTCGLSSGTVTAINYPGWYQQTPGQAPRTLIYNTNTRHSGVPDRFSGSISGNKAALTITGAQAEDEADYYCALYMGNGGHMFGGGTKLTVLGQPKAAPSVTLFPPSSEELQANKATLVCLISDFYPGAVTVAWKADSSPVKAGVETTTPSKQSNNKYAASSYLSLTPEQWKSHRSYSCQVTHEGSTVEKTVAPTECS
notes: also called anti-PD-L1 antibody; modified IgG1 antibody

Response [12]: 0.0903
B2: wild type BCD-135 Fab antibody (Fab, V domains shown)
VH: EVQLVESGGGVVRPGGSLRLSCAASGFTFDDYAMSWVRQAPGKGLEWVSDISWSGSNTNYADSVKGRFTISRDNAKNSLYLQMNSLRAEDTALYHCARAPLLLAMTFGVGSWGQGTLVTVSS
VL: QTVVTQEPSLSVSPGGTVTLTCGLSSGTVTAINYPGWYQQTPGQAPRTLIYNTNTRHSGVPDRFSGSISGNKAALTITGAQAEDEADYYCALYMGNGGHMFGGGTK
notes: Fab made in E. coli and used as supernatant; also called Wild-BCD-135VH; control wild BCD-135 Fab

Response [12]: 0.0637
B3: 4m-BCD-135VH (Fab, V domains shown)
VH: B2 VH with D30A, D31N, R98K, L102P, M105T
VL: B2 VL with M94V, N96T, G98S
notes: Substitutions derived from the printed CDR strings; Fab from E. coli supernatant; also called BCD-135 mutant Fab antibody 4m

Response [12]: 0.0971
B4: 1m-BCD-135VH (Fab, V domains shown)
VH: B2 VH with D30A, D31N, R98K, M105T
VL: B2 VL with M94V, N96T, G98S
notes: Fab from E. coli supernatant; also called BCD-135 mutant Fab antibody 1m

Response [12]: 0.0623
B5: 5m-BCD-135VH (Fab, V domains shown)
VH: B2 VH with D30K, D31S, M34I, R98K, L102M, M105A
VL: B2 VL with M94Y, N96T, G98S
notes: Substitutions derived from the printed CDR strings; Fab from E. coli supernatant; also called BCD-135 mutant Fab antibody 5m

Response [12]: 0.0505
B6: 2m-BCD-135VH (Fab, V domains shown)
VH: B2 VH with D30N, R98K, L102P, M105T
VL: B2 VL with M94T, N96T, G98S
notes: Substitutions derived from the printed CDR strings; Fab from E. coli supernatant; also called BCD-135 mutant Fab antibody 2m

Response [12]: 0.0637
B7: 7m-BCD-135VH (Fab, V domains shown)
VH: B2 VH with D30A, R98K, L102P, L103S, M105I
VL: B2 VL with M94E, N96T, G98S
notes: Substitutions derived from the printed CDR strings; Fab from E. coli supernatant; also called BCD-135 mutant Fab antibody 7m

Response [12]: 0.0945
B8: 6m-BCD-135VH (Fab, V domains shown)
VH: B2 VH with D30S, D31T, R98K, L102V, M105I
VL: B2 VL with M94T, N96T, G98S
notes: Substitutions derived from the printed CDR strings; Fab from E. coli supernatant; also called BCD-135 mutant Fab antibody 6m
